Measurements reported in doi:10.1101/2024.05.08.592654.

Target: GFP-PNUTS^W726A-HA (non-PP1 binding mutant) (Drosophila)
Experiment: affinity purification with mass spectrometry

## PP1-87B (from UniProt P12982 1-302) (enzyme)
  fold more abundant with PNUTS^WT than with PNUTS^W726A: 12 fold
